This passage reports Kd, koff and kon results from patent US20160152729A1.

This test deals with human TFPIα (human) (UniProt P10646). Briefly: SPR Biacore T200; antibody captured on anti-human IgG Fc; TFPI as analyte; 1:1 model. (Surface plasmon resonance follows binding to a sensor surface in real time, without labels.)

Broadly, the Kd is a measure of binding affinity in units of concentration. The low end stands for a tighter complex, the high end for a looser complex. What is called koff is a measure of how fast the partners let go of each other. The kon is the second-order rate constant of association. A higher kon goes with faster complex formation. Bay 2A8-K95L (antibody) displayed a Kd of 0.485 nM, an off-rate (koff) of 0.000399 s⁻¹ and a kon of 822000 M⁻¹ s⁻¹.
